Each substance was assayed against human recombinant biotinylated FcγRIIb (CD32b) (human) (UniProt P31994) (assay: BLI).
Chain of human recombinant biotinylated FcγRIIb (CD32b) (human) (P31994 43-217): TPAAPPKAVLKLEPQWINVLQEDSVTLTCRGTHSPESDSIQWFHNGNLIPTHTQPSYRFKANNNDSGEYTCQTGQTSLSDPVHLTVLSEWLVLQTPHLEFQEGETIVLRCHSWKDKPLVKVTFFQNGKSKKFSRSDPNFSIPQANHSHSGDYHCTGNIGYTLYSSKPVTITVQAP

Chain of recombinant anti-Fel d 1 monoclonal antibody F127, human IgG4 format (P01861 whole entry, looked up): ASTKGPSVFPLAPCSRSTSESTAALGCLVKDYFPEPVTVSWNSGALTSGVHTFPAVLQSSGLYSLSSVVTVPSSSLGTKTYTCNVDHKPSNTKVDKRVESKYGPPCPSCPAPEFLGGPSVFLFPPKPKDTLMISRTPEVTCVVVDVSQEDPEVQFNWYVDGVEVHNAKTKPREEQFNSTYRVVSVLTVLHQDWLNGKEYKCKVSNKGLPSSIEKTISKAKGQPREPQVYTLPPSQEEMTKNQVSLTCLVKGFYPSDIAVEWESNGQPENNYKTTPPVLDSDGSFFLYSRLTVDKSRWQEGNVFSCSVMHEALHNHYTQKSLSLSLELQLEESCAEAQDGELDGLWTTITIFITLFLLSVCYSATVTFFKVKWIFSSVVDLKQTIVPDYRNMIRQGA
Chain of recombinant anti-Fel d 1 monoclonal antibody G078, human IgG4 format (P01861 whole entry, looked up): as above
Chain of recombinant anti-Fel d 1 monoclonal antibody A044, human IgG4 format (P01861 whole entry, looked up): as above
Chain of native human IgG4 (P01861 whole entry, looked up): as above

Row | Substance | Kd [nM] | koff [s⁻¹]
1 | recombinant anti-Fel d 1 monoclonal antibody A044, human IgG4 format (from UniProt P01861) | 18 | 0.00081
2 | recombinant anti-Fel d 1 monoclonal antibody A044, human IgG1 format (from UniProt P01857) | 18 | –
3 | recombinant anti-Fel d 1 monoclonal antibody F127, human IgG1 format (from UniProt P01857) | 27 | –
4 | recombinant anti-Fel d 1 monoclonal antibody F127, human IgG4 format (from UniProt P01861) | 27 | 0.0014
5 | recombinant anti-Fel d 1 monoclonal antibody G078, human IgG4 format (from UniProt P01861) | 34 | 0.0016
6 | native human IgG4 (from UniProt P01861) | 31 | 0.002

Target: human recombinant biotinylated FcγRIIb (CD32b) (human) (UniProt P31994)
Test: BLI
Remark: another data set of the same source

Row | Substance | koff [s⁻¹]
7 | recombinant anti-Fel d 1 monoclonal antibody F127, human IgG4 format (from UniProt P01861) | 0.00126

From publication PMC9582512
